The record followed here is PMC3855715, “Two high-resolution structures of the human E3 ubiquitin ligase Siah1” (Acta Crystallographica Section F, 2013).

The term stoichiometry N denotes a count of units in the complex or per binding partner.

Data set [1] concerns the molecule itself. Put plainly: SEC; size-exclusion chromatography during purification of Siah1 91-282; single species of approximate mass 39 kDa.
Data set [2] deals with T1, Siah1 (construct used for the complex with SIP, limits not stated) (human, UniProt Q8IUQ4 1-282).
T1 construct: Siah1 (seven-in-absentia homologue 1), human, UniProt Q8IUQ4
T1 sequence (looked up): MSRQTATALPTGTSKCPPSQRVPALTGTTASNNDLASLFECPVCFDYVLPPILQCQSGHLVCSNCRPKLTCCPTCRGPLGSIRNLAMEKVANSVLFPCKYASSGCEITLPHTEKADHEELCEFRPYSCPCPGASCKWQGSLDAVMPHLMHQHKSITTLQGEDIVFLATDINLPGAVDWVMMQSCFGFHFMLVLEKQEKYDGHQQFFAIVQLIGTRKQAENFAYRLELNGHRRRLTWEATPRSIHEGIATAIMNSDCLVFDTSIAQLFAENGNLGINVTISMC
Nature of the data set: SEC; size-exclusion gel chromatography of Siah1 with full-length SIP; complex purified. The note with it: both partners purified.

B1: human Siah1 without the RING domain (residues 91-282) (domain or fragment)
chain: MANSVLFPCKYASSGCEITLPHTEKADHEELCEFRPYSCPCPGASCKWQGSLDAVMPHLMHQHKSITTLQGEDIVFLATDINLPGAVDWVMMQSCFGFHFMLVLEKQEKYDGHQQFFAIVQLIGTRKQAENFAYRLELNGHRRRLTWEATPRSIHEGIATAIMNSDCLVFDTSIAQLFAENGNLGINVTISMC
notes: additional methionine at the N-terminus, a cloning artifact (seen in chain A of the 1.95 A structure); also called seven-in-absentia homologue 1; truncated Siah1; source: E. coli, purified as described previously (Rimsa et al., 2013)
As for B1, the “stoichiometry N” value in data set [1] was 2.

B2: full-length human SIP (Siah-interacting protein) (natural protein, UniProt Q9HB71 1-228, looked up)
chain: MASEELQKDLEEVKVLLEKATRKRVRDALTAEKSKIETEIKNKMQQKSQKKAELLDNEKPAAVVAPITTGYTVKISNYGWDQSDKFVKIYITLTGVHQVPTENVQVHFTERSFDLLVKNLNGKSYSMIVNNLLKPISVEGSSKKVKTDTVLILCRKKVENTRWDYLTQVEKECKEKEKPSYDTETDPSEGLMNVLKKIYEDGDDDMKRTINKAWVESREKQAKGDTEF
Take B2: the “stoichiometry N” value in data set [2] was 1.
